Source: patent US20190322750A1 (Y BIOLOGICS, published 2019)
Changes are numbered by the printed parent chain.

Experiments:
[1] = target: T1, PD-L1 on CHO cell line highly expressing PD-L1 (PD-1/PD-L1 blockade bioassay kit, promega J1250) (UniProt Q9NZQ7 19-290, limits assumed); assay: cell-based or functional assay
[2] = target: T2, PD-L1-hFc (human, UniProt Q9NZQ7 19-238); assay: kinetics on PD-L1-hFc (legend paragraph 40; text names ProteOn XPR36, the sheet's sensorgrams have a nm axis)
T2 construct: extracellular domain; Made in HEK-293F cells, protein A purified; also called PD-L1 antigen; PD-L1 protein

[3] = target: T3, human PD-L1 over-expressed on HEK293E cells (human, UniProt Q9NZQ7 19-290); assay: flow cytometry on HEK293E/PD-L1 cells, FITC anti-human IgG, serial dilutions; fit table
T3 construct: whole, on cells; also called human PD-L1 (NM_014143.2)
Method: 0.5 to 1×10⁶ cells per sample were prepared from the transformation cell pools highly expressing human PD-L1, and antibodies were serially diluted at a constant dilution rate and reacted with the prepared cells at 4° C. for 20 minutes. Then, the cells were washed three times with PBS (#LB001-02, Welgene) containing 2% fetal bovine serum and reacted at 4° C. for 20 minutes with an anti-human IgG antibody (#FI-3000, Vectorlabs) conjugated with a FITC (fluorescein isothiocyanate) fluorescent substance. Then, the cells were subjected to the same washing process as above and then suspended in 0.5 ml of PBS containing 2% FBS (#26140-079, Thermo Fisher) with an FACSCanto II flow cytometer (BD Biosciences, USA) as a flow cytometer (Table 11).

[4] = target: T1, PD-L1 on CHO cell line highly …; assay: cell-based or functional assay; remark: listed apart in the source

T1 sequence (Q9NZQ7 19-290 limits assumed): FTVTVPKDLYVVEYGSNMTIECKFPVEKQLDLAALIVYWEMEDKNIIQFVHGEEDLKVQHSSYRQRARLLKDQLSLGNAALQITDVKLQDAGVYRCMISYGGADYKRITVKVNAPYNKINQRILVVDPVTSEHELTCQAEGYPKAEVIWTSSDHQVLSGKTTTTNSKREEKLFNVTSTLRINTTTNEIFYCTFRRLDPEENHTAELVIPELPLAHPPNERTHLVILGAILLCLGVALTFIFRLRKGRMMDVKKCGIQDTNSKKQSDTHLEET
T3 sequence (Q9NZQ7 19-290): as the sequence (Q9NZQ7 19-290 limits assumed) above
T2 sequence (Q9NZQ7 other isoform, or with tags, fused parts or gaps limits assumed): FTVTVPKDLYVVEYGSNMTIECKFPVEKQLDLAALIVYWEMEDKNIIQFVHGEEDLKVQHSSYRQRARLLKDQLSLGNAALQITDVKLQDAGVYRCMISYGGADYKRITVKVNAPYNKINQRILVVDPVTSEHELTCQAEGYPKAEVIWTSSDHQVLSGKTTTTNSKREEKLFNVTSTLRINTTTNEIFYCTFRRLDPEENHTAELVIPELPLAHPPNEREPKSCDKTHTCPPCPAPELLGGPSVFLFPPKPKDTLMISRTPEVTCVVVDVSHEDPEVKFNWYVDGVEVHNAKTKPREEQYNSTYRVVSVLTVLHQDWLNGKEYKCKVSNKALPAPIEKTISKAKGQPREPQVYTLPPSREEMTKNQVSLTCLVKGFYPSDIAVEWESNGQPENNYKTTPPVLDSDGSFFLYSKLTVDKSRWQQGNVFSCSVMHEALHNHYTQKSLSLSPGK

B1: PDL1-16E12 (LS/4A6) (antibody, V domains shown)
VH: QMQLVQSGAEVKKPGSSVKVSCKASGGTFSSYAISWVRQAPGQGLEWMGRIIPILGIANYAQKFQGRVTITADKSTSTAYMELSSLRSEDTAVYYCAKPRDGYNLVAFDIWGQGTMVTVSS
VL: QLVLTQPTSVSGAPGQRVIISCTGSSSNIGAGYDVHWYQQLPGTAPKLLIYGNTNRPSGVPDRFSGSKSGTAASLAITGLQAEDEADYYCQSFDRSRSGSNVFGTGTKVTVL
[1]
  Average *EC50 [nM], PD-1/PD-L1 blockade bioassay: 0.48 nM

B2: PDL1-16E12 (LS/4E12) (antibody, V domains shown)
VH: B1 VH
VL: QLVLTQPPSVSAAPGQKVTFSCTGSSSNIGAGYDVHWYQHLPGAAPRLLIYANTNRPLGVPDRFSGSKSGTSASLAITGLQAEDEADYYCQSYDNRLSGSLFGGGTKLTVL
[1]
  Average *EC50 [nM], PD-1/PD-L1 blockade bioassay: 0.49 nM

B3: PDL1-16E12 (LS/4A10) (antibody, V domains shown)
VH: B1 VH
VL: QLVLTQPPSVSGAPGQRVTISCTGSNSNIGAGYDVHWYQQLPGTAPKLLIHGNNIRPSGVPDRFSGSRSGTSASLAITGLQADDEANYFCQSYDNSLRGSVFGTGTKVTVL
[1]
  Average *EC50 [nM], PD-1/PD-L1 blockade bioassay: 0.45 nM

B4: PDL1-16E12 (LS/4C9) (antibody, V domains shown)
VH: B1 VH
VL: QLVLTQPPSVSGAPGQRVTISCTGGSSNIGAGYDVHWYQQLPGTAPKLLLFGNTNRPSGVPGRFSGSKSGSSASLAITGLQSDDEADYYCQSYDSSLGGSVIGTGTKVTVL
notes: also called PD-L1-16E12-4C9
[2]
  Kd: 0.0158 nM
  koff: 2.62e-06 s⁻¹
  kon: 166000 M⁻¹ s⁻¹
[3]
  Bmax: 4400
  Kd: 2.42 nM
[4]
  EC50 (first run): 0.4 nM
  EC50 (second run): 0.4 nM
[1]
  Average *EC50 [nM], PD-1/PD-L1 blockade bioassay: 0.39 nM

B5: PDL1-16E12 (LS/4B11) (antibody, V domains shown)
VH: B1 VH
VL: QLVLTQPPSVSGAPGQRVTISCTGTNSNIGAGHDVQWYQQIPGTAPKLLIYGNNNRPSGVPDRFSGSKSGTLASLAITGLQSEDEADYYCHSYDGSLSEGVFGTGTKVTVL
[1]
  Average *EC50 [nM], PD-1/PD-L1 blockade bioassay: 0.63 nM

B6: PDL1-16E12 (LS/4H11) (antibody, V domains shown)
VH: B1 VH
VL: QLVLTQPPSVSGAPGQRVTISCTGSSSNVGAGYDVHWYQQLPGTAPKLLIYGNNNRPSGVPARFSGSKSGTSASLAITGLQAEDEADYYCQSYDSRLGVVFGGGTKLTVL
[1]
  Average *EC50 [nM], PD-1/PD-L1 blockade bioassay: 1.02 nM

B7: PDL1-16E12 (LS/4H5) (antibody, V domains shown)
VH: B1 VH
VL: QLVLTQPPSVSGAPGQRVTISCTGSSSNIGAGYDVHWYQQLPGTAPKLLIYGNSNRPSGVPDRFSGSKSGTSASLAITGLQAEDEADYYCQSYDSSLSGGVFGGGTKLTVL
notes: also called PD-L1-16E12-4H5
[2]
  Kd: < 0.001 nM
  koff: < 1e-07 s⁻¹
  kon: 226000 M⁻¹ s⁻¹
[3]
  Bmax: 4020
  Kd: 1.93 nM
[4]
  EC50 (first run): 0.43 nM
  EC50 (second run): 0.26 nM
[1]
  Average *EC50 [nM], PD-1/PD-L1 blockade bioassay: 0.33 nM

B8: PDL1-16E12 (LS/4B8) (antibody, V domains shown)
VH: B1 VH
VL: QLVLTQPPSVSGAPGQSVTISCTGSNSDIGAGHDVHWYQQLPGAAPKLLIHGDRDRPSGVPDRFSGSKSGTSASLAITGLQPEDEADYYCQSYNNSLRGSVFGTGTKVTVL
[1]
  Average *EC50 [nM], PD-1/PD-L1 blockade bioassay: 188 nM

B9: PDL1-16E12 (LS/4G1) (antibody, V domains shown)
VH: B1 VH
VL: B4 VL with G98S, I102F
[1]
  Average *EC50 [nM], PD-1/PD-L1 blockade bioassay: 0.47 nM

B10: PDL1-16E12 (LS/4F11) (antibody, V domains shown)
VH: B1 VH
VL: B7 VL with L2F, Y33S, S54N, S98N, G100V
[1]
  Average *EC50 [nM], PD-1/PD-L1 blockade bioassay: 1.68 nM

B11: PDL1-16E12 (LS/4D4) (antibody, V domains shown)
VH: B1 VH
VL: B7 VL with P8S, I29L, G32P, G66V, G99S, G100S
[1]
  Average *EC50 [nM], PD-1/PD-L1 blockade bioassay: 0.57 nM

B12: PDL1-16E12 (LS/4H8) (antibody, V domains shown)
VH: B1 VH
VL: B1 VL with T8S, I19T, T54S, A72S, F93Y, R95S, R97L, N101G
notes: also called PD-L1-16E12-4H8
[2]
  Kd: < 0.001 nM
  koff: < 1e-07 s⁻¹
  kon: 240000 M⁻¹ s⁻¹
[3]
  Bmax: 3990
  Kd: 1.98 nM
[4]
  EC50 (first run): 0.43 nM
  EC50 (second run): 0.31 nM
[1]
  Average *EC50 [nM], PD-1/PD-L1 blockade bioassay: 0.36 nM

B13: PDL1-16E12 (LS/4E5) (antibody, V domains shown)
VH: B1 VH
VL: B6 VL with R17G, S25D, V29I, L41F, G52E, N54S, A62D, V99A
[1]
  Average *EC50 [nM], PD-1/PD-L1 blockade bioassay: 0.45 nM

B14: PDL1-16E12 (LS/4B12) (antibody, V domains shown)
VH: B1 VH
VL: QLVLTQPPSVSGAPGQRVTISCTGSSSNIGAGYDVHWYQQLPGTAPKLIIYGDTKRASGVPDRFSGSKSGTSASLAITGLQAEDGADYYCQSYDNSLSAHAVFGTGTKVTVL
[1]
  Average *EC50 [nM], PD-1/PD-L1 blockade bioassay: 0.46 nM

B15: PDL1-16E12 (LS/4H9) (antibody, V domains shown)
VH: B1 VH
VL: QFVLTQPPSVSGAPGQRVTISCTGSRSNFGAGHDVHWYQQLPGTAPKLLIYGNNNRPSGVPDRFSGSKSGTSASLAIAGLQSDDEADYYCQSYDSSLSGSVFGTGTKVTVL
[1]
  Average *EC50 [nM], PD-1/PD-L1 blockade bioassay: 0.63 nM

B16: PDL1-16E12 (LS/4A8) (antibody, V domains shown)
VH: B1 VH
VL: B6 VL with V29I, Q40H, L41R, T44K, K47Q, N53D, V60I, A62D, A82P, Y93F
[1]
  Average *EC50 [nM], PD-1/PD-L1 blockade bioassay: 0.83 nM

B17: PDL1-16E12 (LS/4A7) (antibody, V domains shown)
VH: B1 VH
VL: QLVLTQPPSVSGAPGQRVTISCTGSSSNIGAGYDVHWYQSLPGTVPKLLISGNSNRPPGVPDRFSGSKSGTSASLAITSLQSEDEADYYCHSYDGSLSEGVFGTGTKVTVL
notes: also called PD-L1-16E12-4A7
[2]
  Kd: 0.0396 nM
  kon: 161000 M⁻¹ s⁻¹
[3]
  Bmax: 4260
  Kd: 3.92 nM
[4]
  EC50 (first run): 0.38 nM
  EC50 (second run): 0.4 nM
[1]
  Average *EC50 [nM], PD-1/PD-L1 blockade bioassay: 0.37 nM

B18: PDL1-16E12 (LS/4H6) (antibody, V domains shown)
VH: B1 VH
VL: QLVLTQPPSVSAAPGQTVTISCTGSSSNIGAGYDVHWYQQFPGTAPKLLIYGNNNRPSGVPDRFSGSKSGTSASLAITGLQTDDEADYFCQSYDSSLRVSSVFGTGTKVTVL
[1]
  Average *EC50 [nM], PD-1/PD-L1 blockade bioassay: 0.51 nM

B19: PDL1-16E12 (LS/4A11) (antibody, V domains shown)
VH: B1 VH
VL: B7 VL with T19I, L41V, S54N, N55H, A86T, S95N, S96R, G100S, V101L
notes: also called PD-L1-16E12-4A11
[2]
  Kd: 0.0798 nM
  koff: 1.28e-05 s⁻¹
  kon: 160000 M⁻¹ s⁻¹
[3]
  Bmax: 4230
  Kd: 2.57 nM
[4]
  EC50 (first run): 0.37 nM
  EC50 (second run): 0.36 nM
[1]
  Average *EC50 [nM], PD-1/PD-L1 blockade bioassay: 0.34 nM
